According to article PMC10581125:

Molecular target: Klebsiella phage GH-K3-derived depolymerase Depo32 (Klebsiella phage GH-K3)
Test: cryo-EM structure; Depo32 purified by size exclusion chromatography, 0.5-1.0 mg/mL, on glow-discharged C-flat carbon grids; 2.46 Å nonsymmetrized and 2.32 Å C3-symmetrized maps; homotrimer

“Klebsiella phage GH-K3-derived depolymerase Depo32 (enzyme)” was tested. Which stoichiometry N did it give?
Its stoichiometry N is 3.
